The results in this text go back to patent US20260317443 (published 2026).

The target in the experiment is human VWF (human). Description: ELISA.

The term EC50 denotes the concentration at which the effect is half-maximal.

Substitutions are numbered along the chain they refer to.

Chain of human VWF (human) (P04275 whole entry): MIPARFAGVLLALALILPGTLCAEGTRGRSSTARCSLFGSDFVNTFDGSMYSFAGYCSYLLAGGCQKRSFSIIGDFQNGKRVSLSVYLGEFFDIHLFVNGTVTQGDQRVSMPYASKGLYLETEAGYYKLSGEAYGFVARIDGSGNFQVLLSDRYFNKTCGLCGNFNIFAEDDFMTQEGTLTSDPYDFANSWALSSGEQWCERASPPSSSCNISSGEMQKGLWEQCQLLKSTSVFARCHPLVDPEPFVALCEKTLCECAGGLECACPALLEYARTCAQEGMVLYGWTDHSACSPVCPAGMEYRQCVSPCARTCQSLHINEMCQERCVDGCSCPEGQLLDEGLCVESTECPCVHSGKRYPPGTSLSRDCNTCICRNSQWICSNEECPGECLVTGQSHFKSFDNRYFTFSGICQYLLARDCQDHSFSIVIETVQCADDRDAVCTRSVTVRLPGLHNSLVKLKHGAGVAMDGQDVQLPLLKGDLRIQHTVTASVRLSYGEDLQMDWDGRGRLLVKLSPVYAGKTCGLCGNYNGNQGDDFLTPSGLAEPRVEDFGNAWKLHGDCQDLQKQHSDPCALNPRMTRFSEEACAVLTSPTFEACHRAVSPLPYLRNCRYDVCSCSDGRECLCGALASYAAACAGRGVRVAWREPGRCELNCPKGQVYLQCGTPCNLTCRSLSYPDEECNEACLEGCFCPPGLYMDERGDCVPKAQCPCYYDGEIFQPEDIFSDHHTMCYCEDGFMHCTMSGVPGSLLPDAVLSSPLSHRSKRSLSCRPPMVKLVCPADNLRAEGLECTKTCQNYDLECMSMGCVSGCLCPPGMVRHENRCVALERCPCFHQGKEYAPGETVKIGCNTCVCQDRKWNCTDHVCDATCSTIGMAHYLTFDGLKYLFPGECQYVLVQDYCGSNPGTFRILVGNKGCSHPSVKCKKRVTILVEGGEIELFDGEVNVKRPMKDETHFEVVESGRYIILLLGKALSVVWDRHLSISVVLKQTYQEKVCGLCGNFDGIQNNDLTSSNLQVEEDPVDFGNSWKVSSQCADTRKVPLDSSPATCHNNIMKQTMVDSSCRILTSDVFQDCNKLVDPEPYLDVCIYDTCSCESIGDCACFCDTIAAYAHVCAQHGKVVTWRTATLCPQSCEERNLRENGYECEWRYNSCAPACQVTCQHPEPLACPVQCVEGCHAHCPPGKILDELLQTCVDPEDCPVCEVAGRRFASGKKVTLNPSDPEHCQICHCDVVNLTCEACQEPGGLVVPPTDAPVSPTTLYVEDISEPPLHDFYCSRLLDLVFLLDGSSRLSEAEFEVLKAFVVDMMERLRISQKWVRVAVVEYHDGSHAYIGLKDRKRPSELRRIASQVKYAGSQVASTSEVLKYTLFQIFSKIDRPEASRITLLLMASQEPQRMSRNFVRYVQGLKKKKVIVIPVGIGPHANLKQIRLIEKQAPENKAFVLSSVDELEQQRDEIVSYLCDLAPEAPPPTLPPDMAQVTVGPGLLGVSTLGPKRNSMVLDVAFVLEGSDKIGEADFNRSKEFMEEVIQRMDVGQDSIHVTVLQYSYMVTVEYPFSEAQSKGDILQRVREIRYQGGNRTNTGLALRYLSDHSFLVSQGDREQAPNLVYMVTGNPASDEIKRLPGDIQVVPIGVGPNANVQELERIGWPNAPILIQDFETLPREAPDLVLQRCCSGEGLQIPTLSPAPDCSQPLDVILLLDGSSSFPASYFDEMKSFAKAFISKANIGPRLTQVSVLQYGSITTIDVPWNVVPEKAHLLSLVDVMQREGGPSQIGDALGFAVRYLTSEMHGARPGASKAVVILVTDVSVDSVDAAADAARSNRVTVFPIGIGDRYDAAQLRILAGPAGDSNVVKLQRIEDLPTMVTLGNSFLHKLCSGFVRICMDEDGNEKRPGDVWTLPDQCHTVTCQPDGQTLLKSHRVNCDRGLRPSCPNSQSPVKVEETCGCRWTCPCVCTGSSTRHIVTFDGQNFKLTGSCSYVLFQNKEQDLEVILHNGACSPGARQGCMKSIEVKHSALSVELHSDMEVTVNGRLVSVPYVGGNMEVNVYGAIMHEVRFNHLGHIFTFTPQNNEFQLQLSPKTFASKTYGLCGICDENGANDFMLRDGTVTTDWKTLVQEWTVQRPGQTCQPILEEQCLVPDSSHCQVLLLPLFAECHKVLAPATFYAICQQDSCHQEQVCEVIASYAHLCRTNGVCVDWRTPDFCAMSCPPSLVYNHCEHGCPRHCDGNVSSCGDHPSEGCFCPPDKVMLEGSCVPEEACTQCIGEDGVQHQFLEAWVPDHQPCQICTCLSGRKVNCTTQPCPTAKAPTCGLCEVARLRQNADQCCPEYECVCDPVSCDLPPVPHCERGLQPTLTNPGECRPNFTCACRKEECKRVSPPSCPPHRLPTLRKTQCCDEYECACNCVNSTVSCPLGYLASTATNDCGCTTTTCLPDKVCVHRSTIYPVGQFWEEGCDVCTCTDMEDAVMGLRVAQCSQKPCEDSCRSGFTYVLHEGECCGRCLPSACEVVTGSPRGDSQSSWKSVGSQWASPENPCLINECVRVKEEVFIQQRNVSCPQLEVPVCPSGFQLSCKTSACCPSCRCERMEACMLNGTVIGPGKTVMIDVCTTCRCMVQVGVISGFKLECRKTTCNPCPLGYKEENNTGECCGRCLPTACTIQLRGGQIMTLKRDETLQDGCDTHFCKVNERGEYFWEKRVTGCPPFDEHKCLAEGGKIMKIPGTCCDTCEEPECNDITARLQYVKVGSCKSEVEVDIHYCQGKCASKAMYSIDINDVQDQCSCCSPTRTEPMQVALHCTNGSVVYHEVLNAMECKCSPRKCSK

B1: 33D03_H3-L3 (antibody, V domains shown)
VH: QVQLVQSGAEVKKPGASVKVSCKASGYTFTDYYLNWVRQAPGQRLEWMGIINPYNGGTNYSQKFQGRVTITVDKSSSTAYMELSSLRSEDTAVYYCASEGLRTWFTYWGQGTLVTVSS
VL: DIVMTQSPDSLAVSLGERATINCKSSQSLSNSGNQKIYLAWYQQKPGQPPKLLIYGASSRESGVPDRFSGSGSEIDFTLTISSLQAEDVAVYYCQNDHSHPFTFGQGTKLEIK
Molecule B1 registered an EC50 of 0.0483 µg/mL.

B2: 33D03_H1-L3 (antibody, V domains shown)
VH: B1 VH with V72R, K74T, S76A
VL: B1 VL
Consider B2, for which the half-maximal effective concentration (EC50) came out at 0.0597 µg/mL.

B3: 33D03_H2-L4 (antibody, V domains shown)
VH: B1 VH with S61N, K63R, Q65K, V72R, K74T, S76A
VL: B1 VL with N22S
Regarding B3, the midpoint of the response, the EC50, lay at 0.0381 µg/mL.

B4: 33D03_H4-L1 (antibody, V domains shown)
VH: B1 VH with S61N, K63R, Q65K
VL: B1 VL with E74G, I75T
Molecule B4 showed an EC50 of 0.0381 µg/mL.

B5: 33D03_H4-L2 (antibody, V domains shown)
VH: B1 VH with S61N, K63R, Q65K
VL: B1 VL with N22S, E74G, I75T
Regarding B5, it took 0.0354 µg/mL to reach a half-maximal effect (EC50).

B6: 33D03_H4-L3 (antibody, V domains shown)
VH: B1 VH with S61N, K63R, Q65K
VL: B1 VL
The molecule B6 had a concentration giving a half-maximal response (EC50) of 0.0371 µg/mL.

B7: 33D03_H2-L2 (antibody, V domains shown)
VH: B1 VH with S61N, K63R, Q65K, V72R, K74T, S76A
VL: B1 VL with N22S, E74G, I75T
The molecule B7 gave an EC50 of 0.0394 µg/mL.

B8: 33D03_H2-L1 (antibody, V domains shown)
VH: B1 VH with S61N, K63R, Q65K, V72R, K74T, S76A
VL: B1 VL with E74G, I75T
Regarding B8, a half-maximal effect (EC50) was put at 0.0373 µg/mL.

B9: 33D03_H2-L3 (antibody, V domains shown)
VH: B1 VH with S61N, K63R, Q65K, V72R, K74T, S76A
VL: B1 VL
Molecule B9 showed an EC50 of 0.0371 µg/mL.

B10: 33D03_H3-L2 (antibody, V domains shown)
VH: B1 VH
VL: B1 VL with N22S, E74G, I75T
Molecule B10 displayed an EC50 of 0.0457 µg/mL.

B11: 33D03_H4-L4 (antibody, V domains shown)
VH: B1 VH with S61N, K63R, Q65K
VL: B1 VL with N22S
Consider B11, for which the EC50 was found to be 0.0365 µg/mL.

B12: 33D03_par (antibody, V domains shown)
VH: EVQLQQSRPVLVKPGASVKMSCKASGYTFTDYYLNWVKQSPGKRLEWIGIINPYNGGTNYNQRFKGKATLTVDKSSSTAYMELNSLTSEDSAVYFCASEGLRTWFTYWGQGTLVTVSA
VL: DIVMTQSPSSLSVSAGEKVTMSCKSSQSLSNSGNQKIYLAWYQQKPGQPPKLLIYGASSRESGVPDRFTGSGSEIDFTLTISSVQAEDLAVYYCQNDHSHPFTFGSGTKLEIK
As for B12, the response was half-maximal at 0.0498 µg/mL (EC50).

B13: 25B05_H4-L2 (antibody, V domains shown)
VH: EVQLVQSGAEVKKPGASVKVSCKASGYTFTDYFMNWVRQAPGQRLEWMGVINPHNGGTSYSQKFQGRVTLTVDKSSSTAYMELSSLRSEDTAVYYCARRPLGSDYWGQGTTVTVSS
VL: DIVMTQSPSSVSASVGDRVTITCKASQNVGTAVAWYQQKPGKAPKLLIYSASSRYTGVPSRFSGSGSGTDFTLTISSLQPEDFATYYCQQYSSYPLTFGQGTKLEIK
Consider B13, for which a half-maximal effect (EC50) was put at 0.0357 µg/mL.

B14: 25B05_H4-L3 (antibody, V domains shown)
VH: B13 VH
VL: B13 VL with V3Q, G57E, S60D
In turn, B14 returned an EC50 of 0.0271 µg/mL.

B15: 25B05_H3-L2 (antibody, V domains shown)
VH: B13 VH with L70I
VL: B13 VL
On to B15, for which the half-maximal effective concentration (EC50) worked out at 0.0516 µg/mL.

B16: 25B05_H3-L4 (antibody, V domains shown)
VH: B13 VH with L70I
VL: B13 VL with G57E, S60D
Regarding B16, a half-maximal response (EC50) required 0.0379 µg/mL.

B17: 25B05_H2-L2 (antibody, V domains shown)
VH: B13 VH with E1Q, L70I
VL: B13 VL
Consider B17, for which the EC50 was found to be 0.0564 µg/mL.

B18: 25B05_H3-L1 (antibody, V domains shown)
VH: B13 VH with L70I
VL: B13 VL with V3Q
For B18, the midpoint of the response, the EC50, lay at 0.0594 µg/mL.

B19: 25B05_H1-L3 (antibody, V domains shown)
VH: B13 VH with E1Q, L70I, V72R, K74T, S76A
VL: B13 VL with V3Q, G57E, S60D
For the molecule B19, the 50% effective concentration (EC50) came out at 0.0335 µg/mL.

B20: 25B05_H2-L3 (antibody, V domains shown)
VH: B13 VH with E1Q, L70I
VL: B13 VL with V3Q, G57E, S60D
As for B20, the EC50 is 0.0416 µg/mL.

B21: 25B05_H2-L4 (antibody, V domains shown)
VH: B13 VH with E1Q, L70I
VL: B13 VL with G57E, S60D
B21 registered an EC50 of 0.0312 µg/mL.
